Test results reported in patent publication US8242240B2, “Anti-inflammatory compounds and uses thereof” (Yale University, priority 2000, dated 2012).

Target: T1, IKKα-NEMO interaction (Homo sapiens, UniProt Q9Y6K9)
T1 construct: bacterially expressed version of full length NEMO fused at its NH2-terminus to glutathione S-transferase; made in house; host or cells: bacteria (GST-NEMO); in vitro transcription/translation (IKKα)
Experiment: GST pull-down of IKKα by GST-NEMO in the presence of NBD peptide
Type: binding
Conditions: peptide 500 and 1000 μM
Description: (A) Sequences of the NBD wild type (SEQ ID NO:177) and scrambled control peptides (SEQ ID NO:178). The wild type peptide corresponds to residues 734 to 744 of IKKβ. (B) GST pull-down analysis was performed using GST-NEMO and in vitro transcribed and translated IKKα (upper panel) and IKKβ (middle panel) in the presence or absence of either vehicle (2% DMSO), scrambled or wild type NBD peptide (500 and 1000 μM of each peptide). […] (C) Densitometric analysis of autoradiograph bands obtained following GST pull-down of IKKa and IKKb using GST-NEMO in the presence of a range of concentrations of wild type NBD peptide. […] The data are presented as the pixel density as a percentage of control (no peptide) and represent means±sd (n=11). Analysis was performed using the NIH-Image software.

T1 sequence (Q9Y6K9 whole entry, the tested form may be a part): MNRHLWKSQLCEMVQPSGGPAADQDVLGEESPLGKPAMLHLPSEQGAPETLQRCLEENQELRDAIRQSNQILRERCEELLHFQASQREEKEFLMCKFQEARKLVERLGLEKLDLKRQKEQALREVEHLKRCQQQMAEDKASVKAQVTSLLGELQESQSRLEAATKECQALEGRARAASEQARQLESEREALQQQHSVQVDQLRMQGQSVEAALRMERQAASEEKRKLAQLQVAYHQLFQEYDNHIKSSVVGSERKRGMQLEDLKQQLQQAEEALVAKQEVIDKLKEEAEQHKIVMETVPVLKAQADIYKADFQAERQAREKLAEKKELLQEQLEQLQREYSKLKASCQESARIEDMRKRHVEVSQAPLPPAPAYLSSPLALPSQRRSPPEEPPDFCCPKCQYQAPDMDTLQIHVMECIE

With “NBD wild type (SEQ ID NO:177): wild type peptide corresponding to residues 734 to 744 of IKKβ (FTALDWSWLQT; Description of Unknown: Unknown wildtype NBD peptide)” the “interaction of IKKα with NEMO (GST pull-down)” value was “prevents”.
